According to paper PMC9736018:

Target: T1, PA3973-His6 (Pseudomonas aeruginosa PAO1161) (UniProt Q9HX43)
T1 sequence: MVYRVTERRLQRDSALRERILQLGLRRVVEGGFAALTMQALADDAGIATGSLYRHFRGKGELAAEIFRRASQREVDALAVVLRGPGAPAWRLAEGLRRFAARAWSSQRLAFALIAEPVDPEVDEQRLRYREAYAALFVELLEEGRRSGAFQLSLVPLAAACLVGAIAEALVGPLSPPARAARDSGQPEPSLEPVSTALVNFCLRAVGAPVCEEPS
Experiment: EMSA
Settings: 10 mM Tris-HCl pH 8.5, 10 mM MgCl2, 100 mM KCl, 0.1 mg/mL BSA; ~100 ng DNA plus ~300 ng NS competitor in 20 uL; 23 C, 30 min; 1.5% agarose, 0.5x TBE, 4 C …

| Sequence | binding |
| --- | --- |
| GAGAATTCGCATGCCAATGGCGGCGAGGAAAGCGCCTGCGGCTGGTGCCGTGACAAGTGGGGCATCTCCTGGCAGATCACCCCGCGCGTACTCAGCGAAGCCATCGCCAGCCCCGACCGCGCGGCGGCCAGGCGCGCCTTCGAGGCGATGATGACGATGGGCAGGATCGATATCGCCACCATAGAGAAGGCCTTCAAGGGCTGAACGCCCCAACGCCTTGCAAAGGAGTCACGAAGGATCCGC (double strand) [PA2722p] | binds |
| GAGGATCCGGGGCGGGCTCCGGAGGGTGTTCAGCTCCTAGCATAGCGCCCTCGCCTTGCGCCGTTCAGACCTTCGCGCAGCGCCCCTCGCGGCCGCGCGCCAGTTCCCTGTTGTCCTGGTCGTAGAGCTTCGCCCAGGGACGGAAGCCGATGTGCCCGGCCTCCAGGCGGTAGCGCTGGCCGGCGCTGAAGTCCTTGAACTTGAGGTTGAGCTGGCAATCGCGCCAGAGCGGGCTGTCCACGGGGCCGGCATGCGAATTCGC (double strand) [PA0061p] | binds |
| GAGGATCCGTGGGACTCCTTGGGTCGGGCCGGTGGCGAATAGCCAGGGGGACGTCGGGCGCACAAGGTACTGCCAGAAAAACGCTAATGCAAATAATTATCAAATGGATTCAGATATGCGTTTTGTGGCAAAGTTCACCTGTTTTTGCGCGTAGCGCGACCGAACCGGATATGCCCGAGGAACCGTCGATGAGCAGCACTCCCAGCCTTTCCCATTCCCCTGCCGAGCGCATGCGAATTCGC (double strand) [PA4710p] | binds more weakly |
| GCGAATTCGCATGCCACCACGGTTGATCCATAGGCTTCGGTCCGCGCTGCGGTGGCGCGGGCGGCGCCCATGATACCGATTCCCCGGGGCGGTGGGGCGCCGCGGAAGGGACGGGCGTAGGAGATTTCATATTTCGCAATGAGGAATCTATTCCCCATTGAGGAATGTTCTGGTGGCGTGATAGCCTGAATGGAAAAGAGAGTCATTCCCATTTGGAGAAGATCCTGGATCCGC (double strand) [PA4156p] | binds more weakly |
| GCGAATTCGCATGCGATGGGCGGGAATTGTTGGTCGATTTATGACTTGTAGTTTCTCTGTCGTATGCCTTCAGAACTTGTTGAAGGCTTTTCGGCTCGATTGCACAATGCCGCGCCAAGGTTCGTTCGCGAATCGCGGTATGTGAGCTAGACCTCCGCAGCCGGTGCGCCATCCGCAGTGCCCCGGACTACTCGACAATCACGCAGGAGATTCGTGAGGATCCGC (double strand) [PA0195p] | binds |
| GCGAATTCGCATGCGGCGCTGGAGATTCCCGGCGAGGGCGCGGTGGGCATGTGCTGGCGCGACGAACCGCACCGCGACCGTGCCAGCGAAGACCTGCTGGCCTGCCTGCGCGAAGGCGCGGCGGCCGAGTAGGGCGCCGGCCGGCGGGTGCTATTGCAAAAAGGCCGCGGCTTCTCGACAATGCGATTCATTATCATTCATGTGTCGCCCCGACTTTCCCATGGGATCCGC (double strand) [PA2468p] | binds more weakly |
